Measured values as given in PMC5340296.

Molecular target: YFP–CPR5 (translational fusion of the yellow fluorescent protein to CPR5) (Arabidopsis thaliana) (UniProt Q9LV85)
Assay: FRET or BRET

Chain of UniProt Q9LV85 (Q9LV85 whole entry, the tested form may be a part): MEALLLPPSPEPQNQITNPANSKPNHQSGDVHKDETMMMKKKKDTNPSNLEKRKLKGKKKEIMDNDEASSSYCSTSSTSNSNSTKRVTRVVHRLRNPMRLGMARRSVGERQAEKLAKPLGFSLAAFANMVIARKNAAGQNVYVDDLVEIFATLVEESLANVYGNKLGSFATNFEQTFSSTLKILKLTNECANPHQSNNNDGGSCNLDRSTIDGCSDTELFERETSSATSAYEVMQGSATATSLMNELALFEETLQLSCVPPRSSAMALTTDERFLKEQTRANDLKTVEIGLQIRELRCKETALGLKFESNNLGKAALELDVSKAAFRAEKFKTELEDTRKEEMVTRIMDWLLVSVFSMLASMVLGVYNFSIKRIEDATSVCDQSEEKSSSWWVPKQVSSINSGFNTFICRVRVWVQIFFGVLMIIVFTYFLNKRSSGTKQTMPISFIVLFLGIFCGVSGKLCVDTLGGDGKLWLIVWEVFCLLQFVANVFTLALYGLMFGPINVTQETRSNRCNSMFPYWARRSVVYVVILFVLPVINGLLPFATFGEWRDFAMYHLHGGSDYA

FRET efficiency: 10%
Substance: CFP–sbZIP60 (cyan fluorescent protein fused to spliced full-length bZIP60) (natural protein)
